Experimental data taken from paper PMC5693944, “Ml proteins from Mesorhizobium loti and MucR from Brucella abortus: an AT-rich core DNA-target site and oligomerization ability”.

B1: Core5 (dsDNA)
DNA 1: GGCGCCGATATATCGGAGCG
DNA 2: CGCTCCGATATATCGGCGCC
B2: Seq3.1 (dsDNA)
DNA 1: ATTGACGCCCTAATAAGCTA
DNA 2: TAGCTTATTAGGGCGTCAAT
B3: Seq1.2 (dsDNA)
DNA 1: CCACTGACCGCGTCGCGTCA
DNA 2: TGACGCGACGCGGTCAGTGG
B4: Core3 (dsDNA)
DNA 1: GGCGCCGAAATACCGGAGCG
DNA 2: CGCTCCGGTATTTCGGCGCC
B5: Seq3.2 (dsDNA)
DNA 1: ATTGACTAAAGCCGAAGCTA
DNA 2: TAGCTTCGGCTTTAGTCAAT
B6: Exoy43bp (dsDNA)
DNA 1: CCACTGAAATAGTCGCGTCATGAATTGACTAAATAATAAGCTA
DNA 2: TAGCTTATTATTTAGTCAATTCATGACGCGACTATTTCAGTGG
B7: Core4mut (dsDNA)
DNA 1: GCGAAAAAAAAAATTTTGCC
DNA 2: GGCAAAATTTTTTTTTTCGC
B8: Core1 (dsDNA)
DNA 1: GGCGCCGAAATAGCGGAGCG
DNA 2: CGCTCCGCTATTTCGGCGCC
B9: Seq1.1 (dsDNA)
DNA 1: CCACGTCCCTAGTCGCGTCA
DNA 2: TGACGCGACTAGGGACGTGG
B10: Core2mut (dsDNA)
DNA 1: GGCGCCGAAAAAACGGAGCG
DNA 2: CGCTCCGTTTTTTCGGCGCC
B11: Core4 (dsDNA)
DNA 1: GCGAAAAAAATAATTTTGCC
DNA 2: GGCAAAATTATTTTTTTCGC
B12: Core2 (dsDNA)
DNA 1: GGCGCCGAAATAACGGAGCG
DNA 2: CGCTCCGTTATTTCGGCGCC

Legend:
Ml2 = target: T1, Ml2 (Mesorhizobium loti, UniProt A0A1A5JHX8 1-141); experiment: EMSA; details: protein: recombinant; chain copies: 10
T1 sequence: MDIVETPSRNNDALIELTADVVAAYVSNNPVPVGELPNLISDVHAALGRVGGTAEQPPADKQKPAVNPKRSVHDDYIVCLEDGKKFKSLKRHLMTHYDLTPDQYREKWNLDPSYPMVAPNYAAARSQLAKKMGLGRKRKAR

MucR = MucR (Brucella abortus 2308, UniProt Q2YMR3 1-142); experiment: EMSA; details: protein: recombinant; chain copies: 10; blunt

Row | Binder | binding result (Ml2) | binding result (MucR)
1 | B1 | binds | 
2 | B2 | no binding | no binding
3 | B3 | no binding | no binding
4 | B4 | binds | 
5 | B5 | no binding | no binding
6 | B6 | binds | binds
7 | B7 | no binding | 
8 | B8 | binds | 
9 | B9 | no binding | no binding
10 | B10 | no binding | 
11 | B11 | binds | 
12 | B12 | binds | 
